Assay [1] deals with mannose phosphate 6 receptor (M6PR) expressed on HepG2 cells (human). The experiment in a line: cell-based or functional assay.
The target of assay [2] is mannose phosphate 6 receptor (M6PR), immobilized on a CM5 chip. The experiment in a line: SPR, M6PR immobilized; the reference itself.
For assay [3] the target is unchanged. The experiment in a line: SPR (BIACORE T200), M6PR immobilized on CM5 chip by amine coupling.
For assay [4] the target is unchanged. Put plainly: SPR (BIACORE T200), M6PR immobilized on CM5 chip by amine coupling, analyte 200 nM to 12.5 nM in HBS-EP.
Assay [5] has the same target. Put plainly: SPR, M6PR immobilized; relative to iduronate-2-sulfatase.

Consider “iduronate-2-sulfatase (Elaprase manufactured by Shire) (from UniProt P22304 26-550) (enzyme)”, for which the intracellular absorption activity (Vmax), HepG2 cells, 24 h at 37 C, ELISA of cell content in assay [1] is 9.5 nM. For the same molecule, in assay [2], the relative binding affinity from KD (% of iduronate-2-sulfatase) was found to be 100%, the relative ka (% of iduronate-2-sulfatase) turned out to be 100% and the relative kd (% of iduronate-2-sulfatase) came out at 100%. Moreover, in assay [3], the dissociation constant (Kd) is 29.1 nM and the koff was 0.00395 s⁻¹. This molecule had a kon in assay [4] of 136000 M⁻¹ s⁻¹.

B1: long-acting iduronate-2-sulfatase conjugate (protein, part only; not given: Immunoglobulin Fc and PEG linker, human, UniProt P22304 26-550, looked up, not shown: a dimerising Fc or GST)
chain: SETQANSTTDALNVLLIIVDDLRPSLGCYGDKLVRSPNIDQLASHSLLFQNAFAQQAVCAPSRVSFLTGRRPDTTRLYDFNSYWRVHAGNFSTIPQYFKENGYVTMSVGKVFHPGISSNHTDDSPYSWSFPPYHPSSEKYENTKTCRGPDGELHANLLCPVDVLDVPEGTLPDKQSTEQAIQLLEKMKTSASPFFLAVGYHKPHIPFRYPKEFQKLYPLENITLAPDPEVPDGLPPVAYNPWMDIRQREDVQALNISVPYGPIPVDFQRKIRQSYFASVSYLDTQVGRLLSALDDLQLANSTIIAFTSDHGWALGEHGEWAKYSNFDVATHVPLIFYVPGRTASLPEAGEKLFPYLDPFDSASQLMEPGRQSMDLVELVSLFPTLAGLAGLQVPPRCPVPSFHVELCREGKNLLKHFRFRDLEEDPYLPGNPRELIAYSQYPRPSDIPQWNSDKPSLKDIKIMGYSIRTIDYRYTVWVGFNPDEFLANFSDIHAGELYFVDSDPLQDHNMYNDSQGGDLFQLLMP
modifications: N-terminus linked through a 10 kDa polyethylene glycol linker (from ALD-PEG-ALD, reductive amination) to the N-terminal proline of one chain of the immunoglobulin Fc
In assay [1], B1 came in with an intracellular absorption activity (Vmax), HepG2 cells, 24 h at 37 C, ELISA of cell content of 10.8 ng/mL and an intracellular absorption activity relative to iduronate-2-sulfatase of 81.4%. In assay [5], this molecule registered a relative binding affinity from KD (% of iduronate-2-sulfatase) of 88%, a relative ka (% of iduronate-2-sulfatase) of 67% and a relative kd (% of iduronate-2-sulfatase) of 78%. In assay [3], this molecule yielded a Kd of 33.1 nM, a koff of 0.00307 s⁻¹ and a kon of 92000 M⁻¹ s⁻¹.
